Experimental data as given in patent US20040110161, “Method for detecting mutations in nucleotide sequences” (published 2004).
Residue numbers refer to the chain shown, from its start.

What was measured:
MutS (Cy5-labeled) [1] = target: T1, MutS (Cy5-labeled) (Escherichia coli, UniProt P23909 P23909:1-853); assay: impedance spectroscopy; no or only very slight binding; settings: tags: Cy5 nonspecific amine label; also Gene Check unlabeled in EMSA; hairpin
T1 sequence: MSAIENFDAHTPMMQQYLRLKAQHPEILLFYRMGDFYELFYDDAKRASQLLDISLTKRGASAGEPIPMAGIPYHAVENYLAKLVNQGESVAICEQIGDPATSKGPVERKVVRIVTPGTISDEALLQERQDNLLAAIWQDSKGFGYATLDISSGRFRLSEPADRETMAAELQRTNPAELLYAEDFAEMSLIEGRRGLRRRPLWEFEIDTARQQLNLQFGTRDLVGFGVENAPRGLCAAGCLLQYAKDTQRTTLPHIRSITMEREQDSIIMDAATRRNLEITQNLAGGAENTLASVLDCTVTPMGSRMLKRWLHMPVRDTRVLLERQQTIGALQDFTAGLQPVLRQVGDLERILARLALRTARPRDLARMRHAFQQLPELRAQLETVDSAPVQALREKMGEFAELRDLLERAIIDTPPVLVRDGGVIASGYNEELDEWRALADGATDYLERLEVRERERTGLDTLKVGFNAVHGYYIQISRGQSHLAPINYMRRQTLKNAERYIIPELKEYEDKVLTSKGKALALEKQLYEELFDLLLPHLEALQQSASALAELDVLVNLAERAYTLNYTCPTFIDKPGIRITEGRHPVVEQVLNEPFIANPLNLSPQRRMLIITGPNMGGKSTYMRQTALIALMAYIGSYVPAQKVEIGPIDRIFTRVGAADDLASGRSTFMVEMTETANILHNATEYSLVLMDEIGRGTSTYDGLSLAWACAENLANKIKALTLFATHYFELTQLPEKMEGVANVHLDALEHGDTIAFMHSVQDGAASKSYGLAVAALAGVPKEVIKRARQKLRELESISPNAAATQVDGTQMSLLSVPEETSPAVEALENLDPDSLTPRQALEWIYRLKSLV
Description: (§1) The individual electrodes were measured in aqueous K₃/K₄Fe(CN)₆ solution (Darmstadt, Germany) (20 mM in 20 mM tris buffer, 100 mM KCl, 5 mM MgCl), in the frequency range from 100 mHz to 1 MHz […], before and after incubating with mutS. The measured values are shown in the Bode diagram. The measurements were carried out, at room temperature, on an IM 6e impedance measuring desk supplied by Zahner Messtechnik.
(§2) The advantage of this method is that it is possible to carry out measurements on the samples without destroying them and without using labels. The mutation-recognizing E. coli mutS protein was used as a model system for the binding of mispairing-recognizing substrates, while Seq. ID Nos. 50 and 51 were used as duplex-forming oligonucleotides. […] The results of the measurement are depicted in FIGS. 29A and 29B.

MutS (Cy5-labeled) [2] = target: T1, MutS (Cy5-labeled); assay: EMSA; 150 mM KCl, 10 mM MgCl2; labeled and unlabeled; settings: tags: Cy5 nonspecific amine label; also Gene Check unlabeled in EMSA; label: 5'-biotin (SPR); 5'-32P (EMSA); G/T mismatch
Description: Subsequently, the band shift method was used to check whether the Cy™5-conjugated mutS proteins were functionally active, i.e. whether they were still able to bind specifically to base mispairings. For this, heteroduplexes were generated by hybridizing the oligonucleotides […] (Seq. ID No. 6) and “GT” (Seq. ID No. 7), respectively, with the “sense” oligonucleotide (Seq. ID No. 11) by heating for 5 minutes at 95° C. in […] tris-HCl, 100 mM KCl, 5 mM MgCl₂, followed by cooling slowly down to room temperature. […] Using T₄ polynucleotide kinase (New England Biolabs, Frankfurt), 10 pmol each of the two heteroduplexes which wer produced using the “AT” and “GT” oligonucleotides were radioactively labeled, in accordance with the manufacturer's instructions, with 150 μCi of ³²P-ATP at their 5′ ends and purified through Sephadex G50 gel filtration columns (Pharmacia, Uppsala, Sweden) in accordance with the manufacturer's instructions. […] After the run, the gels were dried and analyzed by autoradiography (FIG. 6).

MutS (Cy5-labeled) [3] = target: T1, MutS (Cy5-labeled); assay: hydrogel chip fluorescence; settings: tags: Cy5 nonspecific amine label, also Gene Check unlabeled in EMSA
Text: (§3) The biotinylated “sense” oligonucleotide (Seq. ID No. 10) was electronically addressed to the individual positions on the hydrogel chip, for 60 sec. and at a voltage of 2.1 V, in the Nanogen workstation loading appliance. The hybridization with the second-strand AT (Seq. ID No. 12), GT (Seq. ID No. 13), AA (Seq. ID No. 14), AG (Seq. ID No. 15), CA (Seq. ID No. 16), CC (Seq. ID No. 17), CT (Seq. ID No. 18), GG (Seq. ID No. 19), TT (Seq. ID No. 20), ins+1T (Seq. ID No. 21), ins+2T (Seq. ID No. 22) and ins+3T (Seq. ID No. 23) oligonucleotides was carried out for 120 sec. at 2.1 V. The loading scheme is shown in Table 45; the name of each second-strand oligonucleotide indicates the mispairing or insertion (“ins”) which is formed on hybridization.
(§4) After the loading, the chips were taken out of the loading appliance, filled with 1 ml of blocking buffer and incubated at room temperature for 60 min in order to saturate nonspecific protein-binding sites. The binding of E.coli mutS (ChipA), MBP-MutS (ChipB), Thermus aquaticus mutS (ChipC) and Thermus thermophilus mutS (Chip D) to the resulting DNA double strands was then tested. For this, the chips were incubated for 60 min with in each case 2-3 μg of the Cy™5-labeled mutS proteins in 100 μl of incubation buffer. The chips which were incubated with E.coli mutS and MBP mutS were incubated at room temperature while the chips which were incubated with Thermus aquaticus mutS and Thermus thermophilus mutS were incubated at 37° C. After this incubation, the chips were washed by hand with 10 ml of incubation buffer and inserted into the Nanogen reader. In the reader, the chips were washed, at a temperature of 37° C. (E.coli mutS and MBP-mutS) or 50° C. (Thermus aquaticus mutS and Thermus thermophilus mutS), 70-80× with in each case 0.25 ml of washing buffer.
(§5) Finally, the Cy™3 and Cy™5 fluorescence intensities at the individual positions on the chips were measured in the Nanogen reader using the following instrument settings: high sensitivity (“high gain”) in the case of Cy™5, low sensitivity (“low gain”) in the case of CY™3; 256 μs integration time. Care was taken to ensure that the Cy™3 fluorescence intensity was distributed homogeneously over the chip surface.

[4] = target: T2, MBP-MutS fusion (Cy5-labeled) (Escherichia coli, UniProt P23909 P23909:1-853); assay: hydrogel chip fluorescence; settings: label: 5'-biotin, 5'-Cy3
T2 chain: T1 sequence
Text: as §3, §4, §5

MutS (Cy5-labeled) [5] = target: T1, MutS (Cy5-labeled); assay: impedance spectroscopy; 100 mM KCl, 5 mM MgCl2; settings: tags: Cy5 nonspecific amine label; also Gene Check unlabeled in EMSA; hairpin, two G/T mismatches
Description: as §1, §2

Does ATTCGATCGGGGCGGGGCGAGCTTTTGCTCGCCCCGCCCCGATCGAAT (structured_DNA, 5'-SH, amino modifier X in loop) [hairpin perfectly paired] bind (MutS (Cy5-labeled) [1])?
Result: no binding

B1: sense(36)/GT (dsDNA)
DNA 1: AAGCATACGGAAGTTAAAGTGCGGATCATCTCTAGC
DNA 2: TGGCTAGAGATGATCCGCGCTTTAACTTCCGTATGC
Does B1 bind (MutS (Cy5-labeled) [2])?
Result: binds

B2: sense/AT perfect duplex (dsDNA)
DNA 1: AAGCATACGGAAGTTAAAGTGCGGATCATCTCTAGCCA
DNA 2: B1 DNA 2 with G19A
With B2 as the binder, how does the binding signal (MutS (Cy5-labeled) [3]; label: 5'-biotin sense, 5'-Cy3 AT) read?
Its binding signal is 1 fold vs AT.

B3: sense/CT mismatch (dsDNA)
DNA 1: B2 DNA 1
DNA 2: B1 DNA 2 with G19C
Which results are given for B3?
binding signal (MutS (Cy5-labeled) [3]; label: 5'-biotin, 5'-Cy3, C/T mismatch): 6.24 fold vs AT; binding signal ([4]; C/T mismatch): 3.56 fold vs AT

B4: sense/AA mismatch (dsDNA)
DNA 1: B2 DNA 1
DNA 2: B1 DNA 2 with G19A, T21A
How did the binding signal (MutS (Cy5-labeled) [3]; label: 5'-biotin, 5'-Cy3, A/A mismatch) turn out when B4 was run?
The binding signal was 13 fold vs AT.

And the binding signal ([4]; A/A mismatch)?
The binding signal was 4.03 fold vs AT.

B5: sense/TT mismatch (dsDNA)
DNA 1: B2 DNA 1
DNA 2: B1 DNA 2 with G19T
What does the source list for B5?
binding signal (MutS (Cy5-labeled) [3]; label: 5'-biotin, 5'-Cy3, T/T mismatch): 1.82 fold vs AT; binding signal ([4]; T/T mismatch): 1.94 fold vs AT

B6: sense/GT mismatch (dsDNA)
DNA 1: B2 DNA 1
DNA 2: B1 DNA 2
How did the binding signal (MutS (Cy5-labeled) [3]; label: 5'-biotin, 5'-Cy3, G/T mismatch) turn out when B6 was run?
Its binding signal is 29 fold vs AT.

What about the binding signal ([4]; G/T mismatch) of the same binder?
The binding signal was 22.3 fold vs AT.

B7: sense/GG mismatch (dsDNA)
DNA 1: B2 DNA 1
DNA 2: B1 DNA 2 with G19A, C20G
Which results are given for B7?
binding signal (MutS (Cy5-labeled) [3]; label: 5'-biotin, 5'-Cy3, G/G mismatch): 18.4 fold vs AT; binding signal ([4]; G/G mismatch): 6.5 fold vs AT

B8: sense/CC mismatch (dsDNA)
DNA 1: B2 DNA 1
DNA 2: B1 DNA 2 with G17C, G19A
Which binding signal (MutS (Cy5-labeled) [3]; label: 5'-biotin, 5'-Cy3, C/C mismatch) does the source give for B8 here?
Its binding signal is 1.37 fold vs AT.

B9: sense/AC mismatch (dsDNA)
DNA 1: B2 DNA 1
DNA 2: B1 DNA 2 with G19A, T21C
Which binding signal (MutS (Cy5-labeled) [3]; label: 5'-biotin, 5'-Cy3, A/C mismatch) does the source give for B9 here?
The binding signal was 5.73 fold vs AT.

And the binding signal ([4]; A/C mismatch)?
Its binding signal is 2.53 fold vs AT.

B10: sense/AG mismatch (dsDNA)
DNA 1: B2 DNA 1
DNA 2: B1 DNA 2 with G19A, C20A
Which results are given for B10?
binding signal (MutS (Cy5-labeled) [3]; label: 5'-biotin, 5'-Cy3, A/G mismatch): 3.34 fold vs AT; binding signal ([4]; A/G mismatch): 2.72 fold vs AT

Does ATTCGATCGGGGCGGGGCGAGCTTTTTGCTCGCCTTGCCCCGATCGAAT (structured_DNA, 5'-SH, amino modifier X in loop) [hairpin with two GT mispairings] bind (MutS (Cy5-labeled) [5])?
Result: binds
